The text below walks through data of patent US20110229465A1, “COMPOSITION FOR TREATING DISEASE” (priority 2008, published 2011).

Data set [1] deals with Treg cells. The conditions noted are these: in vitro 50 nM MTX (highest concentration analyzed); reduced from 94%, p<0.05; cited from earlier work.
Data set [2] can be described thus: plasma levels of BT061 after intravenous administration in healthy volunteers. It counts as in vivo, human. The conditions noted are these: range in three volunteers. From the text:
This is considered to reflect a faster target mediated clearance.

Data set [3] deals with rheumatoid arthritis patients. Nature of the data set: monotherapy trial of BT061 in rheumatoid arthritis patients, ACR improvements. It counts as in vivo, human. The following applies: week 7, blinded data from 8 individuals (2 placebo, six BT061). From the text: This system defines a value of ACR 20 as an at least 20% improvement in tender and swollen joint counts and at least 20% improvement in 3 of the 5 remaining ACR core set measures: patient and physician global assessments, pain, disability, and an acute phase reactant, such as C-reactive protein (CRP) or Erythrocyte Sedimentation Rate (ESR). Similarly, ACR 50 and ACR 70 scores define an at least 50% and an at least 70% improvement, respectively.
As indicated above, in one aspect of the invention the agent and/or methotrexate are administered subcutaneously. In general, as is known in the art, subcutaneous doses need to be larger than intravenous doses in order to achieve the equivalent therapeutic effect.

Data set [4] relates to CD4+CD25+ regulatory T cells. Nature of the data set: in vitro proliferation assay with freshly isolated CD4+CD25+ regulatory T cells. The format is cell-based, human. The procedure:
50 ml EDTA blood specimens were obtained from healthy control donors. Peripheral blood mononuclear cells (PBMCs), regulatory T cells (Tregs) and T helper cells as T responder cells (Tresps) were isolated from peripheral blood samples as previously described (Haas et al., 2007).
Freshly isolated Tregs were pre-incubated for 48 hours with 1 μg/ml plate bound antibody (BT061), 1 μg/ml soluble BT061 or Medium.
Freshly isolated Tregs (2.5×10^4, donor A) obtained from 2 donors (Exp. 1 and Exp. 2) were pre-incubated for 48 hours with either 1 μg/ml soluble or plate bound BT061. To achieve allogeneic stimulation the 2.5×10^4 pre-incubated Tregs were then transferred to 1×10^5 T cells as responder cells (Tresps) from a second donor (donor B) in the presence of 2×10^5 T cell depleted and irradiated (30 Gray) PBMCs (donor A). After 4 days of stimulation 1 μCi [3H] thymidine per well was added and proliferation was measured after additional 16 hours.
The percentage of Treg mediated inhibition of Tresp proliferation is shown in FIG. 1 as the percent suppression of proliferation of Tresps incubated with PBMC in the absence of Tregs. Results are shown for the Tregs obtained from the two donors (Exp. 1 and Exp. 2). […]

Setting [5] is: 2 mg i.v. once weekly for six weeks.
Where [6] appears, read: 50 mg s.c. once weekly for six weeks.

Turning to `CN(Cc1cnc2nc(N)nc(N)c2n1)c1ccc(C(=O)N[C@@H](CCC(=O)O)C(=O)O)cc1` [MTX, 4-amino-N10-methylpteroyl glutamic acid], in data set [1], the “suppressive activity of Treg cells” value is recorded as 88%.

B1: BT061: humanized anti-CD4 antibody derived from mouse B-F5, V domains SEQ ID NO: 1 and 2, activates CD4+CD25+ regulatory T cells (antibody, V domains shown)
VH: EEQLVESGGGLVKPGGSLRLSCAASGFSFSDCRMYWLRQAPGKGLEWIGVISVKSENYGANYAESVRGRFTISRDDSKNTVYLQMNSLKTEDTAVYYCSASYYRYDVGAWFAYWGQGTLVTVSS
VL: DIVMTQSPDSLAVSLGERATINCRASKSVSTSGYSYIYWYQQKPGQPPKLLIYLASILESGVPDRFSGSGSGTDFTLTISSLQAEDVAVYYCQHSRELPWTFGQGTKVEIK
modifications: V domain of H chain of humanized antibody hB-F5H37L; V domain of K chain of humanized antibody hB-F5L4M
B1: the “plasma level, conc. 3 h post end of infusion” value in data set [2] (dosage 2.5 mg intravenous) was 0 ng/mL; in data set [2] (dosage 5 mg intravenous), 90 to 160 ng/mL; in data set [2] (dosage 10 mg intravenous), 460 to 1400 ng/mL; in data set [2] (dosage 20 mg intravenous) it was 1700 to 3300 ng/mL; in data set [2] (dosage 40 mg intravenous), 4400 to 6100 ng/mL; in data set [2] (dosage 60 mg intravenous) it was 7700 to 11080 ng/mL. In addition, the “plasma level, effective cmax (post end of infusion)” value lay within 60 to 140 ng/mL in data set [2] (dosage 2.5 mg intravenous); 320 to 440 ng/mL in data set [2] (dosage 5 mg intravenous); 800 to 2000 ng/mL in data set [2] (dosage 10 mg intravenous); 2300 to 4100 ng/mL in data set [2] (dosage 20 mg intravenous); 5900 to 6500 ng/mL in data set [2] (dosage 40 mg intravenous); 8900 to 15100 ng/mL in data set [2] (dosage 60 mg intravenous). Besides, the “percentage of patients showing ACR20” value in data set [3] (setting [5]) and in data set [3] (setting [6]) was 50% throughout. Further, the “percentage of patients showing ACR50” value in data set [3] (setting [5]) and in data set [3] (setting [6]) was 25% in each case. Also, the “percentage of patients showing ACR70” value in data set [3] (setting [5]) and in data set [3] (setting [6]) was 12.5% each time. Moreover, the “Treg mediated suppression of Tresp proliferation” value is on record as “able to reduce average proliferative responses of allogeneic stimulated Tresps” in data set [4] (Tregs pre-incubated 48 hours with 1 μg/ml plate bound BT061, versus medium alone) and “able to reduce average proliferative responses of allogeneic stimulated Tresps” in data set [4] (Tregs pre-incubated 48 hours with 1 μg/ml soluble BT061, versus medium alone).
